Test results as given in patent US20240150473A1 (SURROZEN OPERATING, published 2024).

How the values were obtained:
LRP5 = LRP5 (human (Huh-7 human liver reporter …, UniProt O75197)); assay: cell-based or functional assay
LRP6 = LRP6 (human (Huh-7 human liver reporter …, UniProt O75581)); assay: cell-based or functional assay
biotinylated LRP6E3E4 [1] = molecular target: T1, biotinylated LRP6E3E4 (UniProt O75581 631-1246, limits assumed, biotinylated (site not stated)); assay: BLI (Octet Red 96), biotinylated LRP6E3E4 on streptavidin sensor, 1:1 fit; SEC fraction C1
T1 construct: domain: E3E4; also called Lrp6E3E4 domain; Lrp6 receptor
T1 sequence (looked up): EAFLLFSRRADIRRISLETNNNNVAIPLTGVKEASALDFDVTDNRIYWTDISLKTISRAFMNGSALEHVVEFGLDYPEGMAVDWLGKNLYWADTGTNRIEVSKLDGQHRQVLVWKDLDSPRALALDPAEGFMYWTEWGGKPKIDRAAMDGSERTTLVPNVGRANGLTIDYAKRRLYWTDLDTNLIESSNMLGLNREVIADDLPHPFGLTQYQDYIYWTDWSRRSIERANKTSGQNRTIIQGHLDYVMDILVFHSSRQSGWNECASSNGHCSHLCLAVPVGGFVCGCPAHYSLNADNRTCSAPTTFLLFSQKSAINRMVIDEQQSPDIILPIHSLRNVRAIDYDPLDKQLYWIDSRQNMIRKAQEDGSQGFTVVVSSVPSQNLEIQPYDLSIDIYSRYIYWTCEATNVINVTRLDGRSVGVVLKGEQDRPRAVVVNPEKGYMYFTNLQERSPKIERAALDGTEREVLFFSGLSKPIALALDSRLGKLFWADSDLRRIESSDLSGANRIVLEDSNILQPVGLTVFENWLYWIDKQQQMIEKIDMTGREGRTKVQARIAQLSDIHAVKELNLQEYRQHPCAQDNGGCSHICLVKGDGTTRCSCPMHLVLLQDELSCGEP
Experimental: (§1) Proteins were purified using His-Complete resin (Roche, USA) following standard procedures. Expression levels and homogeneity of VHH26 and its humanized variants were analyzed by SDS-PAGE and SEC (size-exclusion chromatography). […] Biotinylated LRP6E3E4 diluted to 50 nM in the running buffer (PBS, 0.05% Tween-20, 0.5% BSA, pH 7.2) were captured to the SA biosensor followed by dipping into wells containing the indicated VHH26 proteins at different concentrations in running buffer or into a well with only running buffer as a reference channel. KD for each binder was calculated by Octet System software, based on fitting to a 1:1 binding model. Kinetics values (Kon, Koff, KD) from each experiment was calculated from seven technical replicates of different concentrations of the molecule tested with Octet Data Analysis 9.0 (PALL ForteBio, Fremont, CA).
(§2) Central fractions of each of these peaks were examined by Octect-BLI for their ability interact with Lrp6. Kinetics parameters such as kon, koff, and KD for interaction between VHH26 constructs and Lrp6E3E4 domain are listed in Table 2.

biotinylated LRP6E3E4 [2] = molecular target: T1, biotinylated LRP6E3E4; assay: BLI (Octet Red 96), biotinylated LRP6E3E4 on streptavidin sensor, 1:1 fit; SEC fraction C3
Experimental: as §1, §2

biotinylated LRP6E3E4 [3] = molecular target: T1, biotinylated LRP6E3E4; assay: BLI (Octet Red 96), biotinylated LRP6E3E4 on streptavidin sensor, 1:1 fit; SEC fraction G3
Experimental: as §1, §2

biotinylated LRP6E3E4 [4] = molecular target: T1, biotinylated LRP6E3E4; assay: BLI (Octet Red 96), biotinylated LRP6E3E4 on streptavidin sensor, 1:1 fit; SEC fraction G1
Experimental: as §1, §2

LRP6 (human, sequence (O75581 20-1613 limits assumed): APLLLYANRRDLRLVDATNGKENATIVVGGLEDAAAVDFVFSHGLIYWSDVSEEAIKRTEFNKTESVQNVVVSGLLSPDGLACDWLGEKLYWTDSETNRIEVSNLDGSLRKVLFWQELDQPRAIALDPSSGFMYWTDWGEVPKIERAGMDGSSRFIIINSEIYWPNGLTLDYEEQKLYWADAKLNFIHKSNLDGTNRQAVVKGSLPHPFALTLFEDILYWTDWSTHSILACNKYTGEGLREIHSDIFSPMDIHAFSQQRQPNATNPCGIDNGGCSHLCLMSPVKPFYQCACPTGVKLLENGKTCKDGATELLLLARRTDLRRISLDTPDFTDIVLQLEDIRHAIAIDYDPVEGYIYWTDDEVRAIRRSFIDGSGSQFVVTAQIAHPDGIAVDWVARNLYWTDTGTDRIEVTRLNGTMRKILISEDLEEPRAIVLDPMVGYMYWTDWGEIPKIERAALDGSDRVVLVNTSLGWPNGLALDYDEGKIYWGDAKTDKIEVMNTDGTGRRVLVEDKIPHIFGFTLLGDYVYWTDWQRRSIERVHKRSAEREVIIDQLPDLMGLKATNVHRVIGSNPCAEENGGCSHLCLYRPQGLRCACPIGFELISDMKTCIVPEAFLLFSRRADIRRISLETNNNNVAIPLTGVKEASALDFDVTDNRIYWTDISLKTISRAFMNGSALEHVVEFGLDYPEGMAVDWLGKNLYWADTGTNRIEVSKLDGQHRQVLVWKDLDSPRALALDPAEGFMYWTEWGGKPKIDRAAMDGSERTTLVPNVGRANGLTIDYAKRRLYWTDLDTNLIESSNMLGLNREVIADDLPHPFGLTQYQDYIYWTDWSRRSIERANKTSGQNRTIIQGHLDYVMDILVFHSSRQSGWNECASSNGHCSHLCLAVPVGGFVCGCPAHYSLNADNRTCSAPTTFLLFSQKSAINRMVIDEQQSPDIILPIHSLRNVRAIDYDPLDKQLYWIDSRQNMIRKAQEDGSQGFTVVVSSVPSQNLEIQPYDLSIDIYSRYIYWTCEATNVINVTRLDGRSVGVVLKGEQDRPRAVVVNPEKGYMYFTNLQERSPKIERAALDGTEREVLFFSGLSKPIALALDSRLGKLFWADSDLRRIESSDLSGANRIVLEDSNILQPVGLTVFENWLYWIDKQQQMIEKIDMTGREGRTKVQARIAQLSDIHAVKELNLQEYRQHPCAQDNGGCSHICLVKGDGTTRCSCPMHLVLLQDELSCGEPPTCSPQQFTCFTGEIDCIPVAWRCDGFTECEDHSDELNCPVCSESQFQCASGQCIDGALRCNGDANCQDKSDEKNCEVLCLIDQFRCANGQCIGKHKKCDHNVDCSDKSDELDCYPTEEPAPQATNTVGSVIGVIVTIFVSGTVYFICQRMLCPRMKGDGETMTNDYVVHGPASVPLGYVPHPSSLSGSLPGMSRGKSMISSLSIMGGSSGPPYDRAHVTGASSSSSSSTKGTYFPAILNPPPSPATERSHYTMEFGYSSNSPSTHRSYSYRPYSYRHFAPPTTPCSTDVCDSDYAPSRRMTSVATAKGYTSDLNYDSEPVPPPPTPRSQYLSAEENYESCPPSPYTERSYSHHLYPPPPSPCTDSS
LRP5 (human, sequence (O75197 32-1615 limits assumed): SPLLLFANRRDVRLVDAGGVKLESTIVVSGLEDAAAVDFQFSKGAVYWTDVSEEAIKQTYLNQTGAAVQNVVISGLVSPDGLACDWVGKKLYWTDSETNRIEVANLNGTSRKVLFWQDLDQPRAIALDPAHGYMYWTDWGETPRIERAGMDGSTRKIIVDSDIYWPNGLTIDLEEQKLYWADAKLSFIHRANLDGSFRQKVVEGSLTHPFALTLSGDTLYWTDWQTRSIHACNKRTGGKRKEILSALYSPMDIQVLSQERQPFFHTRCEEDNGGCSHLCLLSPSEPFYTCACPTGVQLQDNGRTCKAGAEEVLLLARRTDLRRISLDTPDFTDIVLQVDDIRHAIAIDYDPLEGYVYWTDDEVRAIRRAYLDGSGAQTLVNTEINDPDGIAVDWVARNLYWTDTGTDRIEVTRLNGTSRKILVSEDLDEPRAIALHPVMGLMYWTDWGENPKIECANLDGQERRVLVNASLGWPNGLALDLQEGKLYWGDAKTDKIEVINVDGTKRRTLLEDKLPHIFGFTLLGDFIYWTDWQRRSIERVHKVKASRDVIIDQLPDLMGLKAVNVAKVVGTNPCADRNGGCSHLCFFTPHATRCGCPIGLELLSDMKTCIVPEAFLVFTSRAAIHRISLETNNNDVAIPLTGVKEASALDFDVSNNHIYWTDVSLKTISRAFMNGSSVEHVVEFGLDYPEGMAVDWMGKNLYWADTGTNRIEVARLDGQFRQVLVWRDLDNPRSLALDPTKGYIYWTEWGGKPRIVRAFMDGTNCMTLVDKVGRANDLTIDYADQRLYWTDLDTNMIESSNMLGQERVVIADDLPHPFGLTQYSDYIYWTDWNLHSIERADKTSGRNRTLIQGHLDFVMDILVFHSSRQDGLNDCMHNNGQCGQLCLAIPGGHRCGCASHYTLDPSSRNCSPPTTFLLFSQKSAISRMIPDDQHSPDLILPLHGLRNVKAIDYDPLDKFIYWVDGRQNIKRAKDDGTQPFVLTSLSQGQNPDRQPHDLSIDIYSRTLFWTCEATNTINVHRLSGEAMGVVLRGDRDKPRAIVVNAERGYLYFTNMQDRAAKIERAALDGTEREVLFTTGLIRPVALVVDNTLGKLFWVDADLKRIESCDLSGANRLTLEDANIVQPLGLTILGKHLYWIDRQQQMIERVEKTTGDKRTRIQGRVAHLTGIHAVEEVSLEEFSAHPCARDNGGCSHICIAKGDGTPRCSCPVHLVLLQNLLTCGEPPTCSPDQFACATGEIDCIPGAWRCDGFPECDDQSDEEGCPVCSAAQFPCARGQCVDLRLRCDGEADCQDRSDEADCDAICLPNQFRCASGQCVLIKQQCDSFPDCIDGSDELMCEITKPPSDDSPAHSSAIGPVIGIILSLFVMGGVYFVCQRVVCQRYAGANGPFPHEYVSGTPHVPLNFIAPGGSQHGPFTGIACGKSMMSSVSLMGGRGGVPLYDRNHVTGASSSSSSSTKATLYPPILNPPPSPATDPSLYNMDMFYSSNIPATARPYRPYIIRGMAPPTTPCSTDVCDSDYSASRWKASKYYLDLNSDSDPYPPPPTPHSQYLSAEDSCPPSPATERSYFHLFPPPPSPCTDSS

B1: VHH03, Parental LALAPG (bispecific antibody)
heavy chain (R2M13 VH-IgG1 LALAPG): EVQLLQSGAEVKKPGSSVKVSCKASGGTFTYRYLHWVRQAPGQGLEWMGGIIPIFGTGNYAQKFQGRVTITADESTSTAYMELSSLRSEDTAVYYCASSMVRVPYYYGMDVWGQGTLVTVSSASTKGPSVFPLAPSSKSTSGGTAALGCLVKDYFPEPVTVSWNSGALTSGVHTFPAVLQSSGLYSLSSVVTVPSSSLGTQTYICNVNHKPSNTKVDKKVEPKSCDKTHTCPPCPAPEAAGGPSVFLFPPKPKDTLMISRTPEVTCVVVDVSHEDPEVKFNWYVDGVEVHNAKTKPREEQYNSTYRVVSVLTVLHQDWLNGKEYKCKVSNKALGAPIEKTISKAKGQPREPQVYTLPPSREEMTKNQVSLTCLVKGFYPSDIAVEWESNGQPENNYKTTPPVLDSDGSFFLYSKLTVDKSRWQQGNVFSCSVMHEALHNHYTQKSLSLSPGK
light chain (VHH03-linker-R2M13 light chain): not shown
- EC50, Super TOPFlash (STF) luciferase reporter in Huh-7 STF cells; row LRP5 / VHH03, column Parental LALAPG EC50 (LRP5): 0.11 nM

B2: VHH03, Humanized LALAPG (bispecific antibody)
heavy chain (R2M13 VH-IgG1 LALAPG): EVQLLQSGAEVKKPGSSVKVSCKASGGTFTYRYLHWVRQAPGQGLEWMGGIIPIFGTGNYAQKFQGRVTITADESTSTAYMELSSLRSEDTAVYYCASSMVRVPYYYGMDVWGQGTLVTVSSASTKGPSVFPLAPSSKSTSGGTAALGCLVKDYFPEPVTVSWNSGALTSGVHTFPAVLQSSGLYSLSSVVTVPSSSLGTQTYICNVNHKPSNTKVDKKVEPKSCDKTHTCPPCPAPEAAGGPSVFLFPPKPKDTLMISRTPEVTCVVVDVSHEDPEVKFNWYVDGVEVHNAKTKPREEQYNSTYRVVSVLTVLHQDWLNGKEYKCKVSNKALGAPIEKTISKAKGQPREPQVYTLPPSREEMTKNQVSLTCLVKGFYPSDIAVEWESNGQPENNYKTTPPVLDSDGSFFLYSKLTVDKSRWQQGNVFSCSVMHEALHNHYTQKSLSLSPGK
light chain (humanized VHH03-linker-R2M13 light chain): not shown
- EC50, Super TOPFlash (STF) luciferase reporter in Huh-7 STF cells; row LRP5 / VHH03, column Humanized LALAPG EC50 (LRP5): 1.8 nM

B3: VHH26, Parental LALAPG (bispecific antibody)
heavy chain (R2M13 VH-IgG1 LALAPG): EVQLLQSGAEVKKPGSSVKVSCKASGGTFTYRYLHWVRQAPGQGLEWMGGIIPIFGTGNYAQKFQGRVTITADESTSTAYMELSSLRSEDTAVYYCASSMVRVPYYYGMDVWGQGTLVTVSSASTKGPSVFPLAPSSKSTSGGTAALGCLVKDYFPEPVTVSWNSGALTSGVHTFPAVLQSSGLYSLSSVVTVPSSSLGTQTYICNVNHKPSNTKVDKKVEPKSCDKTHTCPPCPAPEAAGGPSVFLFPPKPKDTLMISRTPEVTCVVVDVSHEDPEVKFNWYVDGVEVHNAKTKPREEQYNSTYRVVSVLTVLHQDWLNGKEYKCKVSNKALGAPIEKTISKAKGQPREPQVYTLPPSREEMTKNQVSLTCLVKGFYPSDIAVEWESNGQPENNYKTTPPVLDSDGSFFLYSKLTVDKSRWQQGNVFSCSVMHEALHNHYTQKSLSLSPGK
light chain (VHH26-linker-R2M13 light chain): not shown
- EC50, Super TOPFlash (STF) luciferase reporter in Huh-7 STF cells; row LRP6 / VHH26, column Parental LALAPG EC50 (LRP6): 1.1 nM

B4: VHH36, Humanized LALAPG (bispecific antibody, human IgG1, kappa, L234A L235A)
heavy chain (R2M13 VH-IgG1 LALAPG): EVQLLQSGAEVKKPGSSVKVSCKASGGTFTYRYLHWVRQAPGQGLEWMGGIIPIFGTGNYAQKFQGRVTITADESTSTAYMELSSLRSEDTAVYYCASSMVRVPYYYGMDVWGQGTLVTVSSASTKGPSVFPLAPSSKSTSGGTAALGCLVKDYFPEPVTVSWNSGALTSGVHTFPAVLQSSGLYSLSSVVTVPSSSLGTQTYICNVNHKPSNTKVDKKVEPKSCDKTHTCPPCPAPEAAGGPSVFLFPPKPKDTLMISRTPEVTCVVVDVSHEDPEVKFNWYVDGVEVHNAKTKPREEQYNSTYRVVSVLTVLHQDWLNGKEYKCKVSNKALGAPIEKTISKAKGQPREPQVYTLPPSREEMTKNQVSLTCLVKGFYPSDIAVEWESNGQPENNYKTTPPVLDSDGSFFLYSKLTVDKSRWQQGNVFSCSVMHEALHNHYTQKSLSLSPGK
light chain (humanized VHH36-linker-R2M13 light chain): not shown
- EC50, Super TOPFlash (STF) luciferase reporter in Huh-7 STF cells; row LRP5&6 / VHH36, column Humanized LALAPG EC50 (nM); one value given for both LRP5 and LRP6 (LRP6): 1.2 nM
- EC50, Super TOPFlash (STF) luciferase reporter in Huh-7 STF cells; row LRP5&6 / VHH36, column Humanized LALAPG EC50 (nM); one value given for both LRP5 and LRP6 (LRP5): 1.2 nM

B5: R2M13-26 humanized LALAPG (R2M13-h26) (bispecific antibody)
heavy: EVQLLQSGAEVKKPGSSVKVSCKASGGTFTYRYLHWVRQAPGQGLEWMGGIIPIFGTGNYAQKFQGRVTITADESTSTAYMELSSLRSEDTAVYYCASSMVRVPYYYGMDVWGQGTLVTVSSASTKGPSVFPLAPSSKSTSGGTAALGCLVKDYFPEPVTVSWNSGALTSGVHTFPAVLQSSGLYSLSSVVTVPSSSLGTQTYICNVNHKPSNTKVDKKVEPKSCDKTHTCPPCPAPEAAGGPSVFLFPPKPKDTLMISRTPEVTCVVVDVSHEDPEVKFNWYVDGVEVHNAKTKPREEQYNSTYRVVSVLTVLHQDWLNGKEYKCKVSNKALGAPIEKTISKAKGQPREPQVYTLPPSREEMTKNQVSLTCLVKGFYPSDIAVEWESNGQPENNYKTTPPVLDSDGSFFLYSKLTVDKSRWQQGNVFSCSVMHEALHNHYTQKSLSLSPGK
light: not shown
- EC50, Super TOPFlash (STF) luciferase reporter in Huh-7 STF cells; row LRP6 / VHH26, column Humanized LALAPG EC50 (LRP6): 0.63 nM

B6: VHH36, Parental LALAPG (bispecific antibody, human IgG1, kappa, L234A L235A)
heavy chain (R2M13 VH-IgG1 LALAPG): EVQLLQSGAEVKKPGSSVKVSCKASGGTFTYRYLHWVRQAPGQGLEWMGGIIPIFGTGNYAQKFQGRVTITADESTSTAYMELSSLRSEDTAVYYCASSMVRVPYYYGMDVWGQGTLVTVSSASTKGPSVFPLAPSSKSTSGGTAALGCLVKDYFPEPVTVSWNSGALTSGVHTFPAVLQSSGLYSLSSVVTVPSSSLGTQTYICNVNHKPSNTKVDKKVEPKSCDKTHTCPPCPAPEAAGGPSVFLFPPKPKDTLMISRTPEVTCVVVDVSHEDPEVKFNWYVDGVEVHNAKTKPREEQYNSTYRVVSVLTVLHQDWLNGKEYKCKVSNKALGAPIEKTISKAKGQPREPQVYTLPPSREEMTKNQVSLTCLVKGFYPSDIAVEWESNGQPENNYKTTPPVLDSDGSFFLYSKLTVDKSRWQQGNVFSCSVMHEALHNHYTQKSLSLSPGK
light chain (VHH36-linker-R2M13 light chain): not shown
- EC50, Super TOPFlash (STF) luciferase reporter in Huh-7 STF cells; row LRP5&6 / VHH36, column Parental LALAPG EC50 (nM); one value given for both LRP5 and LRP6 (LRP6): 0.06 nM
- EC50, Super TOPFlash (STF) luciferase reporter in Huh-7 STF cells; row LRP5&6 / VHH36, column Parental LALAPG EC50 (nM); one value given for both LRP5 and LRP6 (LRP5): 0.06 nM

B7: VHH26-H3 (VHH)
VHH: EVQLVESGGGLVQPGGSLRLSCAGSGRIFAIYDIAWYRQAPGKGREWVAMIRPVVTEIDYADSVKGRFTISRDNSKNTVYLQMNSLRAEDTAVYYCNAKRPWGSRDEYWGQGTTVTVSS
notes: Expressed in Expi293 cells with a C-terminal hexa-histidine tag; two SEC peaks were tested separately
- Kd (biotinylated LRP6E3E4 [1]): 3200 nM
- Kd (biotinylated LRP6E3E4 [2]): 422 nM

B8: VHH26-H4 (VHH)
VHH: EVQLVESGGGLVQPGGSLRLSCAGSGRIFAIYDIAWYRQAPGKGRELVAMIRPVVTEIDYADSVKGRFTISRDNSKNTVYLQMNSLRAEDTAVYYCNAKRPWGSRDEYWGQGTTVTVSS
notes: as for B7
- Kd (biotinylated LRP6E3E4 [3]): 192 nM
- Kd (biotinylated LRP6E3E4 [4]): 662 nM

B9: VHH26-H2 (VHH)
VHH: EVQLVESGGGLVQPGGSLRLSCAGSGRIFAIYDIAWYRQAPGKGLEWVAMIRPVVTEIDYADSVKGRFTISRDNSKNTVYLQMNSLRAEDTAVYYCNAKRPWGSRDEYWGQGTTVTVSS
notes: as for B7
- Kd (biotinylated LRP6E3E4 [3]): 280 nM
- Kd (biotinylated LRP6E3E4 [4]): 441 nM

B10: VHH26-H5 (VHH)
VHH: EVQLVESGGGLVQPGGSLRLSCAGSGRIFAIYDIAWYRQAPGKGREWVAMIRPVVTEIDYADSVKGRFTISRDNSKKTVYLQMNSLRAEDTAVYYCNAKRPWGSRDEYWGQGTTVTVSS
notes: as for B7
- Kd (biotinylated LRP6E3E4 [1]): 41 nM
- Kd (biotinylated LRP6E3E4 [2]): 109 nM

B11: VHH26-H1 (VHH)
VHH: EVQLLESGGGLVQPGGSLRLSCAASGRIFAIYDIAWVRQAPGKGLEWVSMIRPVVTEIDYADSVKGRFTISRDNSKNTLYLQMNSLRAEDTAVYYCAKKRPWGSRDEYWGQGTTVTVSS
notes: as for B7
- Kd (biotinylated LRP6E3E4 [2]): 281 nM

B12: VHH26-H6 (VHH)
VHH: EVQLVESGGGLVQPGGSLRLSCAGSGRIFAIYDIAWYRQAPGKGRELVAMIRPVVTEIDYADSVKGRFTISRDNSKKTVYLQMNSLRAEDTAVYYCNAKRPWGSRDEYWGQGTTVTVSS
notes: as for B7
- Kd (biotinylated LRP6E3E4 [3]): 486 nM
- Kd (biotinylated LRP6E3E4 [4]): 687 nM
